In publication PMC8516035:

Columns and labels:
[1] = tested on: T1, phi13 CI, His-TEV tag cleaved (Staphylococcus aureus phage phi13), ORF:0019350b; assay: EMSA
T1 sequence: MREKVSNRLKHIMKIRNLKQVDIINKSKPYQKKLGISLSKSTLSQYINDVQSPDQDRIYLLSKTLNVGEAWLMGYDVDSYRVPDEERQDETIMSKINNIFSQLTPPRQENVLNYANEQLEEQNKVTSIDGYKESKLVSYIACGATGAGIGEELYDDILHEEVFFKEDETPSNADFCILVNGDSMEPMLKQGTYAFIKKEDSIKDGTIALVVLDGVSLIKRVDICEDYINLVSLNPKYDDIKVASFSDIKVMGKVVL

[2] = tested on: phi13 rCI (CI repressor, N-terminal His-TEV) (Staphylococcus aureus phage phi13); assay: EMSA; settings: Binding buffer (as listed, possibly stock) 100 mM Tris-HCl, 5 mM EDTA, 500 mM NaCl, 5 mM DTT, 25% glycerol, plus BSA and sheared DNA, pH not stated, ~0.5 nM …
[3] = tested on: phi13 CI, His-TEV tag cleaved (Staphylococcus aureus phage phi13); assay: EMSA; settings: Binding buffer (as listed, possibly stock) 100 mM Tris-HCl, 5 mM EDTA, 500 mM NaCl, 5 mM DTT, 25% glycerol, plus BSA and sheared DNA; pH not stated; ~0.5 nM …
[4] = tested on: phi13 rCI (CI repressor, N-terminal His-TEV) (Staphylococcus aureus phage phi13); assay: EMSA; settings: Binding buffer (as listed, possibly stock) 100 mM Tris-HCl, 5 mM EDTA, 500 mM NaCl, 5 mM DTT, 25% glycerol, plus BSA and sheared DNA; pH not stated; ~0.5 nM …
[5] = molecular target: ɸ13 rCI (recombinant CI repressor protein of phage ɸ13 with an N-terminal His-tag and TEV cleavage site) (S. aureus phage ɸ13); assay: SEC; HiLoad 26/600 Superdex200 column; 20 mM Tris, 100 mM NaCl, pH 7.5; calibrated with Mw standards (Blue Dextran, Ferritin, Catalase, Aldolase, Carbonic Anhydrase, Aprotinin); tagged rCI after IMAC
[6] = apparent, free-probe loss, no specific band detected

Substance | Kd [1] | Kd [2] | Kd [3] | Kd [4] | Kd [2, 6] | other results
GTAATACGACTCACTATAGGATAATAAAGCTTGTTGAACAAAAATTCAACAAAAAAGTTCATAAATCATGAATTTTTGTATTGACTTGATTCAAAACAAGGTGTAAAGTGGTAACTTTCACACAAAAGG (double strand) [OR] | 12 nM |  |  |  |  | 
GTAATACGACTCACTATAGGATATACCGGTAGAGAAAATACACTTATATTTTTTTAAAGAAAAAGTTCATGTTATATGAACTTAAGGAGGGGCACAATGGAACAAATCACGGATCCGGTAACTTTCACACAAAAGG (double strand) [OD] | 12 nM |  |  |  |  | 
GTAATACGACTCACTATAGGGACTTGATTCAAAACAAGGTGTAAAGTATAGTTAAGTTCATGATACGTGAACTTGAGAGGAGGTGCTTTTATGTGTTACGACTACTCAGGTAACTTTCACACAAAAGG (double strand) [OL] | 12 nM |  |  |  |  | 
OD |  | 3.3 nM | 12 nM | 15 nM |  | 
OD control |  |  |  |  | 900 nM | 
OL |  | 3.9 nM | 12 nM | 22 nM |  | 
OL control |  |  |  |  | 690 nM | 
OR |  | 100 nM | 12 nM | 310 nM |  | 
OR control |  |  |  |  | 690 nM | 
ɸ13 rCI (recombinant CI repressor protein of phage ɸ13 with an N-terminal His-tag and TEV cleavage site) |  |  |  |  |  | stoichiometry N [5]: 4
